Measured values: article PMC5477490 (Nature Communications, 2016)

How the values were obtained:
Assay in all cases: BLI; […] (AHC) biosensor, […]; Octet Red; 25 °C; kinetics buffer 1 × PBS, pH 7.4; association 900 s, dissociation 900 s; […]
Details in all cases: both partners purified
[1] = biological target: HA of A/Anhui/1/2005(H5N1) (Influenza A virus A/Anhui/1/2005(H5N1), strain)
[2] = biological target: HA of A/Brisbane/59/2007(H1N1) (Influenza A virus …, strain)
[3] = biological target: HA of A/California/07/2009(H1N1) (Influenza A virus …, UniProt C3W5X2, strain)
HA of A/WSN/1933(H1N1) = HA of A/WSN/1933(H1N1) (Influenza A virus A/WSN/1933(H1N1), strain)
[4] = biological target: HA of A/Vietnam/1203/2004(H5N1) (Influenza A virus …, UniProt A8UDR6, strain)
[5] = biological target: HA of A/Hong Kong/483/1997(H5N1) (Influenza A virus A/Hong …, strain)
[6] = biological target: T1, HA of A/Brevig Mission/1/1918(H1N1) (Influenza A virus A/Brevig …, UniProt Q9WFX3, strain)
T1 construct: source: bought: Sino Biological Inc

[7] = biological target: HA of A/Canada/720/2005(H2N2) (Influenza A virus …, UniProt Q4ZH98, strain)

B1: human mAb 3E1 (antibody, V domains shown)
VH: QVQLQESGPGLVKPSETLSLTCSVSGASISSYYWIWIRQPAGKGLEWIGRFYTSGSPNYNPSLRSRVTMSVDTSKNQFSLKLTSVTAADTAVYYCAREEHITFGGVIVRYWGQGTLVTVSS
VL: DIQMTQSPATLSASVGDRVSITCRASQSISSWLAWYQQKPGKAPKLLIYKASSLESGVPSRFSGSGSGSEFTLTISSLQPDDFAIYYCQQYNSYPWTFGQGTKVEIK
notes: IgG1, kappa; also called 3E1 mAb
binding result [1]: binds
binding result [2]: binds
binding result [3]: binds
binding result (HA of A/WSN/1933(H1N1)): binds
binding result [4]: binds
binding result [5]: binds
binding result [6]: binds
binding result [7]: no binding
